Experimental data published in PMC5762634, “Domain swapping and SMYD1 interactions with the PWWP domain of human hepatoma-derived growth factor”.

Molecular target: HDGF PWWP domain (human, UniProt P51858 1-100)
Test: size-exclusion chromatography; 5 mM EDTA; SEC: 20 mM Tris-HCl pH 7.5, 5 mM EDTA, 5 mM beta-ME, no added salt; protein:DNA 1:1, incubated overnight at 4 C
Conditions: protein: recombinant; tags: His tag (pET28a, NdeI/EcoRI, Ni-NTA); chain copies: 2; blunt

HDGF PWWP domain, sequence (P51858 1-100): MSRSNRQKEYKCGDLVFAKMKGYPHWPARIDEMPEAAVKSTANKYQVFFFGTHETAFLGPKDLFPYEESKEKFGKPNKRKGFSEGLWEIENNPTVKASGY

Binder	binding result
15-bp SMYD1 (dsDNA) DNA 1: CAGGCTGGTCTTGAA DNA 2: TTCAAGACCAGCCTG	binds
5-bp SMYD1 (dsDNA) DNA 1: CAGGC DNA 2: GCCTG	binds
